The values that follow come from article PMC8464079.

Common to all, as to assay: fluorescence polarization
A general note: In fluorescence polarisation assays a small probe gives low polarisation when free and higher when bound to something large.

The target in data set [1] is T1, MUT-4G (Caenorhabditis elegans, UniProt Q09487 172-535, N318S;H319N;Q322E).
T1 sequence: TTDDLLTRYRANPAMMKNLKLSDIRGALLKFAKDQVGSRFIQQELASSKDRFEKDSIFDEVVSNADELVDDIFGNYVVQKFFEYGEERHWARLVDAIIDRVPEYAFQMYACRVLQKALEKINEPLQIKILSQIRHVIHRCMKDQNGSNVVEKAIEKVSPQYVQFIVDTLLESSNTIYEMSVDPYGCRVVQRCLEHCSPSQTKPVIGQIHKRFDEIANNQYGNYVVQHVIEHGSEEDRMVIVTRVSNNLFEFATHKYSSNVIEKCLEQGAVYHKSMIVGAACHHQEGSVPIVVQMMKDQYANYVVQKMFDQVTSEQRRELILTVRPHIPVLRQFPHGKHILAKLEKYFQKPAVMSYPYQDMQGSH

Data set [2] has as its target T2, MUT-8G (Caenorhabditis elegans, UniProt Q09487 172-535, N472S;Y473N;Q476E).
T2 sequence: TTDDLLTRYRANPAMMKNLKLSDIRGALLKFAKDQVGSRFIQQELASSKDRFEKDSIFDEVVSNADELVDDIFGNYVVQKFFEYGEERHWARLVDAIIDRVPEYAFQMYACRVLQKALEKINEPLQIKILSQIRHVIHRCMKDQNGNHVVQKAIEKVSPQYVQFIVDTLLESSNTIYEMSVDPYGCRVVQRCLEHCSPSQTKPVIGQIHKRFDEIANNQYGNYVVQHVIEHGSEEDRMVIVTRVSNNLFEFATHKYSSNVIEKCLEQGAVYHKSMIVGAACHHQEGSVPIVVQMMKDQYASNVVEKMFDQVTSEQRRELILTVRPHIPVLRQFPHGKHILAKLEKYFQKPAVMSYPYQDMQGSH

Data set [3] has as its target T3, MUT-4A (Caenorhabditis elegans, UniProt Q09487 172-535, N318C;H319R).
T3 sequence: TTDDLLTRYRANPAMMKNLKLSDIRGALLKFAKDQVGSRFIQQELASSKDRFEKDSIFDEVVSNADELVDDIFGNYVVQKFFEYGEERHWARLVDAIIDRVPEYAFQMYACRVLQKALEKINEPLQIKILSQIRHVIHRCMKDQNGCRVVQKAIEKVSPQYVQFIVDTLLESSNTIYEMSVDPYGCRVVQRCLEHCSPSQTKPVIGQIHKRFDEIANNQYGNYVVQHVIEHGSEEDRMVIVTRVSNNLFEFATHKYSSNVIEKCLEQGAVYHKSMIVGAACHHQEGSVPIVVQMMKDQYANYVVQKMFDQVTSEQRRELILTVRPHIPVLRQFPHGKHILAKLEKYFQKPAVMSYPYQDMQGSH

Data set [4] deals with T4, MUT-4C (Caenorhabditis elegans, UniProt Q09487 172-535, N318C;H319Y;Q322R).
T4 sequence: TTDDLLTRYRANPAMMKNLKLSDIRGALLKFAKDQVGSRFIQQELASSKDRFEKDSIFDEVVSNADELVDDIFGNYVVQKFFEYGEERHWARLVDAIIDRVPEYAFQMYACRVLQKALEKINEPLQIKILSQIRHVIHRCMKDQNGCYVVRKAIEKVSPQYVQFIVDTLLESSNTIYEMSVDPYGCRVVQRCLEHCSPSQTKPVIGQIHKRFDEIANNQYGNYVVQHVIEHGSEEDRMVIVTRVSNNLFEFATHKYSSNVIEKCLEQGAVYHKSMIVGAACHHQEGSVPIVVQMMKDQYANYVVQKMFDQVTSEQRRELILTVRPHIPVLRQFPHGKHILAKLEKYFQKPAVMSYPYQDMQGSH

Data set [5] concerns the target T5, MUT-4N (Caenorhabditis elegans, UniProt Q09487 172-535, N318A;H319A;Q322A).
T5 sequence: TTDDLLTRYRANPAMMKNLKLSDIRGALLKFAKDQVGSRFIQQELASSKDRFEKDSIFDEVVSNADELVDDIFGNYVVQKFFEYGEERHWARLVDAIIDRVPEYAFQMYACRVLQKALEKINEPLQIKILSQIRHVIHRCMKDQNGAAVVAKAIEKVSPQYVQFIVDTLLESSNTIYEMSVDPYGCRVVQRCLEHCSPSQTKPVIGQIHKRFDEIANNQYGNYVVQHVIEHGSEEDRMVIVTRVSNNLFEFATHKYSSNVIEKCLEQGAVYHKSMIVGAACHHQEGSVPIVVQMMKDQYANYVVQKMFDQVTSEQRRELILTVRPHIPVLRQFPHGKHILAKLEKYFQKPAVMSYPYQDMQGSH

Data set [6] concerns the target T6, PUF-8 WT (FP) (Caenorhabditis elegans, UniProt Q09487 172-535).
T6 sequence: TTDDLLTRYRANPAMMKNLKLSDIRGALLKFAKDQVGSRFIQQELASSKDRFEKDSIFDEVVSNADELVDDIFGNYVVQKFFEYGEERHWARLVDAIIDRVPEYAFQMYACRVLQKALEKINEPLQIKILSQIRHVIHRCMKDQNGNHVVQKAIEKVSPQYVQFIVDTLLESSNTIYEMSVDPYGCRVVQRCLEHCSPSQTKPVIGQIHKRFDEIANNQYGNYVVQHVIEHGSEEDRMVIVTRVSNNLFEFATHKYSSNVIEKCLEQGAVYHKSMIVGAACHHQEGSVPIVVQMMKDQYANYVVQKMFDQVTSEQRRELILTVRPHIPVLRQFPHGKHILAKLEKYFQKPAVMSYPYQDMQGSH

With UGUAGAUA (ssRNA) [PBE-5G FAM], the Kd (in general, the free concentration of one partner at which half of the binding sites on the other are occupied at equilibrium, for simple one-to-one binding) in data set [1] is 29.8 ± 9.14 nM; in data set [3] it was 9.99 ± 3.11 nM; in data set [4], 11.3 ± 3.43 nM; in data set [5], 180 ± 22.8 nM; in data set [6], 12.8 ± 5.63 nM. Besides, in data set [2], the binding result is listed as “no binding”.

As to GGUACAUA (ssRNA) [PBE-1G FAM], the binding result in data set [1], in data set [2] and in data set [5] was “no binding” each time. Besides, the Kd was 159 ± 34.1 nM in data set [3], 207 ± 23 nM in data set [4] and 128 ± 25.1 nM in data set [6].

Regarding UGUACAUA (ssRNA) [PBE-5C FAM], the dissociation constant (Kd) in data set [1] turned out to be 1350 ± 507 nM; in data set [3], 0.64 ± 0.2 nM; in data set [4] it was 2.91 ± 0.36 nM; in data set [5], 349 ± 83.2 nM; in data set [6], 0.84 ± 1.08 nM. Further, the binding result in data set [2] is reported as “no binding”.

With AUACAUGU (ssRNA) [Control RNA FAM], the binding result in data set [1], in data set [2], in data set [3], in data set [4] and in data set [5] was “no binding” in each case.

With UGUAUAUA (ssRNA) [PBE-5U FAM], the equilibrium dissociation constant (Kd) in data set [1] was 775 ± 276 nM; in data set [3] it was 5.85 ± 1.64 nM; in data set [4], 3.72 ± 0.94 nM; in data set [5], 313 ± 58.2 nM; in data set [6], 1.27 ± 1.16 nM. In addition, in data set [2], the binding result was “no binding”.
